Legend:
Assay in all cases: flow cytometry on cells
[1] = molecular target: SARS-CoV-2 S glycoprotein R457A, full-length, cell surface-expressed (SARS-CoV-2) (UniProt P0DTC2)
[2] = molecular target: SARS-CoV-2 S glycoprotein Y421A, full-length, cell surface-expressed (SARS-CoV-2) (UniProt P0DTC2)
[3] = molecular target: SARS-CoV-2 S glycoprotein Y473A, full-length, cell surface-expressed (SARS-CoV-2) (UniProt P0DTC2)
[4] = molecular target: SARS-CoV-2 S glycoprotein T415A, full-length, cell surface-expressed (SARS-CoV-2) (UniProt P0DTC2)

Measured: percent reduction in binding (MFI relative to wild type)

P2C-1F11 monoclonal antibody
> 50%: all assays above

— article PMC7801515
